Earlier results, collected in article PMC2682639.

Biological target: Hint1 (Homo sapiens) (UniProt P49773)

Sequence of Hint1 (P49773 2-126): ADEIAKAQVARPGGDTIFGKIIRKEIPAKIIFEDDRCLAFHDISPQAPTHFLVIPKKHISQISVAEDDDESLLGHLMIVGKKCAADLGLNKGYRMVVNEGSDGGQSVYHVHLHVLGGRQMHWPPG

Kd: < 1 nM
Substance: Hint1 (from UniProt P49773)
